Experimental data reported in publication doi:10.1101/2022.03.07.483330 (bioRxiv, 2022).
Each block holds one binder with its values, some of them ahead of it.

Tests used:
[1] = target: human wild-type DLL4 (N-EGF5, residues 27-400) (human, UniProt Q9NR61 27-400); test: SPR
DLL4.v2 (N-EGF5) = DLL4.v2 (N-EGF5) (human, UniProt Q9NR61 27-400, N257P | T271L | F280Y | S301R | Q305P); test: SPR
Sequence of DLL4.v2 (N-EGF5) (Q9NR61 27-400 N257P/T271L/F280Y/S301R/Q305P): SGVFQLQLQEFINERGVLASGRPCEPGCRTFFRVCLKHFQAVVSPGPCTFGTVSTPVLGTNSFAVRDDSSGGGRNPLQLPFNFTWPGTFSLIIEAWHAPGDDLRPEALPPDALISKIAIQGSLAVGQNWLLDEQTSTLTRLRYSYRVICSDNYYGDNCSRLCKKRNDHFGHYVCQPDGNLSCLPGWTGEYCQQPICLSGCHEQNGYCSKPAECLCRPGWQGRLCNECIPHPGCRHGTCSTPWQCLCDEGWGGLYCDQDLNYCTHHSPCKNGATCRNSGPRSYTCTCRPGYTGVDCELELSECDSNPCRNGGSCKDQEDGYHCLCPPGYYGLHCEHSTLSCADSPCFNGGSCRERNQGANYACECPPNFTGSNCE

Sequence of human wild-type DLL4 (N-EGF5, residues 27-400) (Q9NR61 27-400): as the sequence (Q9NR61 27-400 N257P/T271L/F280Y/S301R/Q305P) above, with P231N, L245T, Y254F, R275S, P279Q counted along it

binding result [1]: binds
binding result (DLL4.v2 (N-EGF5)): binds
B1: human Notch2 (EGF6-13, residues 221-530), biotinylated (domain or fragment, UniProt Q04721 221-530, looked up)
chain: LYVPCAPSPCVNGGTCRQTGDFTFECNCLPGFEGSTCERNIDDCPNHRCQNGGVCVDGVNTYNCRCPPQWTGQFCTEDVDECLLQPNACQNGGTCANRNGGYGCVCVNGWSGDDCSENIDDCAFASCTPGSTCIDRVASFSCMCPEGKAGLLCHLDDACISNPCHKGALCDTNPLNGQYICTCPQGYKGADCTEDVDECAMANSNPCEHAGKCVNTDGAFHCECLKGYAGPRCEMDINECHSDPCQNDATCLDKIGGFTCLCMPGFKGVHCELEINECQSNPCVNNGQCVDKVNRFQCLCPPGFTGPVCQ
modifications: biotin on the C-terminal BAP-tag (BirA)

binding result [1]: binds
binding result (DLL4.v2 (N-EGF5)): binds
B2: human Notch4 (EGF7-12, residues 276-511), biotinylated (domain or fragment, UniProt Q99466 276-511, looked up)
chain: NPDNCVSHQCQNGGTCQDGLDTYTCLCPETWTGWDCSEDVDECETQGPPHCRNGGTCQNSAGSFHCVCVSGWGGTSCEENLDDCIAATCAPGSTCIDRVGSFSCLCPPGRTGLLCHLEDMCLSQPCHGDAQCSTNPLTGSTLCLCQPGYSGPTCHQDLDECLMAQQGPSPCEHGGSCLNTPGSFNCLCPPGYTGSRCEADHNECLSQPCHPGSTCLDLLATFHCLCPPGLEGQLCE
modifications: biotin on the C-terminal BAP-tag (BirA)

binding result [1]: binds
binding result (DLL4.v2 (N-EGF5)): binds
B3: mouse Notch1 (EGF6-13, residues 221-526), biotinylated (domain or fragment, UniProt Q01705 221-526, looked up)
chain: PCSPSPCQNGGTCRPTGDTTHECACLPGFAGQNCEENVDDCPGNNCKNGGACVDGVNTYNCRCPPEWTGQYCTEDVDECQLMPNACQNGGTCHNTHGGYNCVCVNGWTGEDCSENIDDCASAACFQGATCHDRVASFYCECPHGRTGLLCHLNDACISNPCNEGSNCDTNPVNGKAICTCPSGYTGPACSQDVDECALGANPCEHAGKCLNTLGSFECQCLQGYTGPRCEIDVNECISNPCQNDATCLDQIGEFQCICMPGYEGVYCEINTDECASSPCLHNGHCMDKINEFQCQCPKGFNGHLCQ
modifications: biotin on the C-terminal BAP-tag (BirA)

binding result [1]: binds
binding result (DLL4.v2 (N-EGF5)): binds
B4: human Notch3 (EGF5-12, residues 197-505), biotinylated (domain or fragment, UniProt Q9UM47 197-505, looked up)
chain: PAVPCAPSPCRNGGTCRQSGDLTYDCACLPGFEGQNCEVNVDDCPGHRCLNGGTCVDGVNTYNCQCPPEWTGQFCTEDVDECQLQPNACHNGGTCFNTLGGHSCVCVNGWTGESCSQNIDDCATAVCFHGATCHDRVASFYCACPMGKTGLLCHLDDACVSNPCHEDAICDTNPVNGRAICTCPPGFTGGACDQDVDECSIGANPCEHLGRCVNTQGSFLCQCGRGYTGPRCETDVNECLSGPCRNQATCLDRIGQFTCICMAGFTGTYCEVDIDECQSSPCVNGGVCKDRVNGFSCTCPSGFSGSTCQ
modifications: biotin on the C-terminal BAP-tag (BirA)
